Experimental data reported in paper PMC10682436.

Legend:
[1] = molecular target: OVOL2 C120Y C120Y (Mus musculus) (UniProt Q8CIV7); experiment: EMSA; conditions: 1 nM probe; 53 ng or 1.7 ug protein; severely impaired; EMSA: 1 nM 5'-biotin DNA probe, room temperature, 30 min (1 h for Fig. 7E), LightShift Chemiluminescent EMSA Kit; specific competitor 4.5 uM where used …
OVOL2 WT (Mus musculus) = OVOL2 WT (Mus musculus) (UniProt Q8CIV7); experiment: EMSA; conditions: 1 nM probe; 53 ng protein; EMSA: 1 nM 5'-biotin DNA probe, room temperature, 30 min (1 h for Fig. 7E), LightShift Chemiluminescent EMSA Kit; specific competitor 4.5 uM where used …

## AACCGTTACC (double strand) [OVOL2 probe]
[1]
  binding signal (relative to WT = 128): 1
OVOL2 WT (Mus musculus)
  binding signal (fold (WT:C120Y DNA binding ability)): 128
